Results as given in the FLAb antibody collection (doi:10.1101/2023.12.08.570889).

Target: TSLP, Q969D9
Assay: Kd (SPR)

Row | Binder | Kd
1 | unnamed (protein) chain 1: QMQLVESGGGVVQPGRSLRLSCAASGFTFSTYAMHWVRQAPGKGLEWVAVIWYDGSNKHYADSVKGRFTITRDNSKNTLNLQMNSLRAEDTAVYYCARAPRYYEYWEAFDVWGQGTMVTVSS chain 2: SYVLTQPPSVSVAPGQTARITCGGNNLGSKSVHWYQQKPGQAPVLVVYDDSDRPSWIPERFSGSNSGNTATLTISRGEAGDEADYYCQVWDSSSDHVVFGGGTKLTVL | 285 nM
2 | unnamed (protein) chain 1: QMQLVESGGGVVQPGRSLRLSCAASGFTFSTFAMHWVRQAPGKGLEWVAVIWYDGSNKHYADSVKGRFTITRDNSKNTLNLQMNSLRAEDTAVYYCARAPRYDDAYEAFDVWGQGTMVTVSS chain 2: SYVLTQPPSVSVAPGQTARITCGGNNLGSKSVHWYQQKPGQAPVLVVYDDSDRPSWIPERFSGSNSGNTATLTISRGEAGDEADYYCQVWDSSSDHVVFGGGTKLTVL | 387 nM
3 | unnamed (protein) chain 1: QMQLVESGGGVVQPGRSLRLSCAASGFTFSTYAMHWVRQAPGKGLEWVAVIWYDGSNKHYADSVKGRFTITRDNSKNTLNLQMNSLRAEDTAVYYCARAPRYDYYYEAFDVWGQGTMVTVSS chain 2: SYVLTQPPSVSVAPGQTARITCGGNNLGSKSVHWYQQKPGQAPVLVVYDDSDRPSWIPERFSGSNSGNTATLTISRGEAGDEADYYCQVWDSSSDHVVFGGGTKLTVL | 315 nM
4 | unnamed (protein) chain 1: QMQLVESGGGVVQPGRSLRLSCAASGFTFSTFAMHWVRQAPGKGLEWVAVIWYDGSNKHYADSVKGRFTITRDNSKNTLNLQMNSLRAEDTAVYYCARAPRYDWDYEAFDVWGQGTMVTVSS chain 2: SYVLTQPPSVSVAPGQTARITCGGNNLGSKSVHWYQQKPGQAPVLVVYDDSDRPSWIPERFSGSNSGNTATLTISRGEAGDEADYYCQVWDSSSDHVVFGGGTKLTVL | 349 nM
5 | unnamed (protein) chain 1: QMQLVESGGGVVQPGRSLRLSCAASGFTFSTFAMHWVRQAPGKGLEWVAVIWYDGSNKHYADSVKGRFTITRDNSKNTLNLQMNSLRAEDTAVYYCARAPRYYWYWEAFDVWGQGTMVTVSS chain 2: SYVLTQPPSVSVAPGQTARITCGGNNLGSKSVHWYQQKPGQAPVLVVYDDSDRPSWIPERFSGSNSGNTATLTISRGEAGDEADYYCQVWDSSSDHVVFGGGTKLTVL | 353 nM
6 | unnamed (protein) chain 1: QMQLVESGGGVVQPGRSLRLSCAASGFTFSTYAMHWVRQAPGKGLEWVAVIWYDGSNKHYADSVKGRFTITRDNSKNTLNLQMNSLRAEDTAVYYCARAPRYYEYYEAFDVWGQGTMVTVSS chain 2: SYVLTQPPSVSVAPGQTARITCGGNNLGSKSVHWYQQKPGQAPVLVVYDDSDRPSWIPERFSGSNSGNTATLTISRGEAGDEADYYCQVWDSSSDHVVFGGGTKLTVL | 105 nM
7 | unnamed (protein) chain 1: QMQLVESGGGVVQPGRSLRLSCAASGFTFSTFAMHWVRQAPGKGLEWVAVIWYDGSNKHYADSVKGRFTITRDNSKNTLNLQMNSLRAEDTAVYYCARSPRYDDYWEAFDVWGQGTMVTVSS chain 2: SYVLTQPPSVSVAPGQTARITCGGNNLGSKSVHWYQQKPGQAPVLVVYDDSDRPSWIPERFSGSNSGNTATLTISRGEAGDEADYYCQVWDSSSDHVVFGGGTKLTVL | 320 nM
8 | unnamed (protein) chain 1: QMQLVESGGGVVQPGRSLRLSCAASGFTFSTFAMHWVRQAPGKGLEWVAVIWYDGSNKHYADSVKGRFTITRDNSKNTLNLQMNSLRAEDTAVYYCARSPRYDEYYEAFDVWGQGTMVTVSS chain 2: SYVLTQPPSVSVAPGQTARITCGGNNLGSKSVHWYQQKPGQAPVLVVYDDSDRPSWIPERFSGSNSGNTATLTISRGEAGDEADYYCQVWDSSSDHVVFGGGTKLTVL | 103 nM
9 | unnamed (protein) chain 1: QMQLVESGGGVVQPGRSLRLSCAASGFTFSTFAMHWVRQAPGKGLEWVAVIWYDGSNKHYADSVKGRFTITRDNSKNTLNLQMNSLRAEDTAVYYCARSPRYDYYYEAFDVWGQGTMVTVSS chain 2: SYVLTQPPSVSVAPGQTARITCGGNNLGSKSVHWYQQKPGQAPVLVVYDDSDRPSWIPERFSGSNSGNTATLTISRGEAGDEADYYCQVWDSSSDHVVFGGGTKLTVL | 372 nM
10 | unnamed (protein) chain 1: QMQLVESGGGVVQPGRSLRLSCAASGFTFSTFAMHWVRQAPGKGLEWVAVIWYDGSNKHYADSVKGRFTITRDNSKNTLNLQMNSLRAEDTAVYYCARAPRYDYYLEAFDVWGQGTMVTVSS chain 2: SYVLTQPPSVSVAPGQTARITCGGNNLGSKSVHWYQQKPGQAPVLVVYDDSDRPSWIPERFSGSNSGNTATLTISRGEAGDEADYYCQVWDSSSDHVVFGGGTKLTVL | 519 nM
11 | unnamed (protein) chain 1: QMQLVESGGGVVQPGRSLRLSCAASGFTFSTFAMHWVRQAPGKGLEWVAVIWYDGSNKHYADSVKGRFTITRDNSKNTLNLQMNSLRAEDTAVYYCARAPRYDEYLEAFDVWGQGTMVTVSS chain 2: SYVLTQPPSVSVAPGQTARITCGGNNLGSKSVHWYQQKPGQAPVLVVYDDSDRPSWIPERFSGSNSGNTATLTISRGEAGDEADYYCQVWDSSSDHVVFGGGTKLTVL | 305 nM
12 | unnamed (protein) chain 1: QMQLVESGGGVVQPGRSLRLSCAASGFTFSTYAMHWVRQAPGKGLEWVAVIWYDGSNKHYADSVKGRFTITRDNSKNTLNLQMNSLRAEDTAVYYCARSPRYDYYYEAFDVWGQGTMVTVSS chain 2: SYVLTQPPSVSVAPGQTARITCGGNNLGSKSVHWYQQKPGQAPVLVVYDDSDRPSWIPERFSGSNSGNTATLTISRGEAGDEADYYCQVWDSSSDHVVFGGGTKLTVL | 524 nM
13 | unnamed (protein) chain 1: QMQLVESGGGVVQPGRSLRLSCAASGFTFSTYAMHWVRQAPGKGLEWVAVIWYDGSNKHYADSVKGRFTITRDNSKNTLNLQMNSLRAEDTAVYYCARAPRYYDYWEAFDVWGQGTMVTVSS chain 2: SYVLTQPPSVSVAPGQTARITCGGNNLGSKSVHWYQQKPGQAPVLVVYDDSDRPSWIPERFSGSNSGNTATLTISRGEAGDEADYYCQVWDSSSDHVVFGGGTKLTVL | 285 nM
14 | unnamed (protein) chain 1: QMQLVESGGGVVQPGRSLRLSCAASGFTFSTFAMHWVRQAPGKGLEWVAVIWYDGGNKHYADSVKGRFTITRDNSKNTLNLQMNSLRAEDTAVYYCARAPRYDEYYEAFDVWGQGTMVTVSS chain 2: SYVLTQPPSVSVAPGQTARITCGGNNLGSKSVHWYQQKPGQAPVLVVYDDSDRPSWIPERFSGSNSGNTATLTISRGEAGDEADYYCQVWDSSSDHVVFGGGTKLTVL | 217 nM
15 | unnamed (protein) chain 1: QMQLVESGGGVVQPGRSLRLSCAASGFTFSTFAMHWVRQAPGKGLEWVAVIWYDGSNKHYADSVKGRFTITRDNSKNTLNLQMNSLRAEDTAVYYCARAPRYDEAYEAFDVWGQGTMVTVSS chain 2: SYVLTQPPSVSVAPGQTARITCGGNNLGSKSVHWYQQKPGQAPVLVVYDDSDRPSWIPERFSGSNSGNTATLTISRGEAGDEADYYCQVWDSSSDHVVFGGGTKLTVL | 502 nM
